These results are taken from patent US20260166145A1 (Memorial Sloan Kettering, published 2026).

Experiment [1] has as its target T1, Human CD33-FC protein (R&D Systems) (human, UniProt P20138 18-259).
T1 construct: Bought reagent; also called purified CD33-FC; not shown: Fc part of the bought fusion; it is captured by anti-hIgG Fc biosensors
Nature of the experiment: BLI (Octet RED96e): human CD33-FC captured on anti-hIgG Fc Capture biosensors, scFv in solution; monovalent scFv, not IgG. On the technique in general: BLI is a label-free optical method that tracks binding on a fibre tip over time.

Experiment [2] concerns the target T1, Human CD33-FC protein (R&D Systems). Nature of the experiment: BLI (Octet RED96e) on captured human CD33-FC; reference is HuM195 scFv.
Description: (§1) Equilibrium dissociation constant (Kd) measurement with bio-layer interferometry (BLI) biosensor. Human CD33-FC protein (R&D Systems, Minneapolis, MN) was captured on Anti-hIgG Fc Capture (AHC) Biosensors (ForteBio, Fremont, CA) overnight and blocked with FC. […] The binding graphs were fitted to a Kd constant model.
Experiment [3] shares this target. Nature of the experiment: BLI (Octet RED96e): human CD33-FC captured on anti-hIgG Fc Capture biosensors, antibody in solution; full-length bivalent HuM195 IgG.
Description: as §1
For experiment [4] the target is unchanged. Nature of the experiment: competitive ELISA on coated CD33-FC: pre-incubation with increasing HuM195 antibody, then HuM195 scFv at 100 nM, detected with anti-human Fab-HRP; signal normalised to 0 nM HuM195 falls from about 95-100 to about 10 on the axis named Blocked (%). On the technique in general: In an ELISA, binding on a coated surface is turned into a signal by an enzyme label.

T1 sequence (P20138 18-259 limits assumed): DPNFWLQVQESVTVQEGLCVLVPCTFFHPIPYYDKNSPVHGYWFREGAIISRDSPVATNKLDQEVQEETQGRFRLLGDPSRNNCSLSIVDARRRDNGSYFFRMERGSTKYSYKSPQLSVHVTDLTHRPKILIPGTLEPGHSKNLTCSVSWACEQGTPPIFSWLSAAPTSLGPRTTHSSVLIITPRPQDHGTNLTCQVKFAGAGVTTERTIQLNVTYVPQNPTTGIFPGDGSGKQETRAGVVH

B1: HuM195 single-chain variable fragment (scFv), purified, with C-terminal His-tag (scFv)
scFv: QVQLVQSGAEVKKPGSSVKVSCKASGYTFTDYNMHWVRQAPGQGLEWIGYIYPYNGGTGYNQKFKSKATITADESTNTAYMELSSLRSEDTAVYYCARGRPAMDYWGQGTLVTVSSGGGGSGGGGSGGGGSDIQMTQSPSSLSASVGDRVTITCRASESVDNYGISFMNWFQQKPGGAPKLLIYAASNQGSGVPSRFSGSGSGTDFTLTISSLQPDDFATYYCQQSKEVPWTFGQGTKVEIKHHHHHHHH
notes: Expressed from the pSF-CMV-Puro-IL2 secretion plasmid in FreeStyle 293 cells and purified on a Histrap column; Monomeric by size exclusion chromatography; also called HuM195 scFv; Hu195 scFv
As to B1, in experiment [1], the Kd stood at 1.81 nM.

B2: Lintuzumab (HuM195) antibody (antibody, V domains shown)
VH: QVQLVQSGAEVKKPGSSVKVSCKASGYTFTDYNMHWVRQAPGQGLEWIGYIYPYNGGTGYNQKFKSKATITADESTNTAYMELSSLRSEDTAVYYCARGRPAMDYWGQGTLVTVSS
VL: DIQMTQSPSSLSASVGDRVTITCRASESVDNYGISFMNWFQQKPGGAPKLLIYAASNQGSGVPSRFSGSGSGTDFTLTISSLQPDDFATYYCQQSKEVPWTFGQGTKVEIK
notes: also called Hu195; Hu195 antibody
By IC50 is commonly meant the point on the concentration scale where inhibition reaches its midpoint. Read a low IC50 as greater potency in that assay. B2: the “fold difference of Kd against HuM195 scFv” value in experiment [2] was about 30 fold. Further, the Kd in experiment [3] is 0.0627 nM. Also, the IC50 in experiment [4] was found to be 0.716 nM.
